Where a name gives a salt, the structure may show the parent alone. Read-outs that look alike come from different tables or passages of the source. Square brackets hold non-standard residues; d marks the D form. Ends that are not written are not given here. pY = N[C@@H](Cc1ccc(OP(=O)(O)O)cc1)C(=O)O
Assays:
[1] = target: T1, DLAR D1 (Drosophila melanogaster, UniProt P16621); test: PNC binding by fluorescence quenching, DLAR D1
T1 construct: DLAR 1448-1746; His tag (pET-15b or pET-22b); made in house; host or cells: E. coli BL21(DE3)
T1 sequence (P16621 1448-1746): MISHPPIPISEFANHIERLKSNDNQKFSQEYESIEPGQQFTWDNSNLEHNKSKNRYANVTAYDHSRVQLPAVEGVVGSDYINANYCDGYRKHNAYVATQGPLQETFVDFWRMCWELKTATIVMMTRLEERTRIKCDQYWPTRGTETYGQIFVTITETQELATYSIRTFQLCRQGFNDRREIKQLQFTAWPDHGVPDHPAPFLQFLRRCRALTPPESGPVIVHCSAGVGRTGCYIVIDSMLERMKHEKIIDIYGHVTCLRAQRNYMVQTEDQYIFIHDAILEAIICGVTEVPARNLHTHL
Experimental: (§1) 5.0 µM of recombinant protein was titrated with increasing concentrations of PNC (Sigma-Aldrich) in 25 mM citrate buffer pH 6.5, 100 mM NaCl and 2 mM DTT. The closing of the WPD loop leads to the quenching of the intrinsic tryptophan fluorescence. Fluorescence quenching was monitored at 350 nm (emission maximum) for recombinant PTP domains and the dissociation constants were calculated by fitting the data to a hyperbolic equation of ligand binding using the nonlinear regression modules of Sigma Plot software (Systat Software Inc.).
(§2) To evaluate the differences in the phosphotyrosine binding pockets of the two domains of DLAR and PTP99A, a small molecule probe para-Nitrocatecholsulfate (2-hydroxy-5-nitrophenyl sulfate; PNC) was used. PNC acts as a small molecule competitive inhibitor of the PTPs as it mimics the phosphotyrosine residue. PNC binding was evaluated by monitoring the fluorescence quenching of the tryptophan residues in the WPD loop. […] PNC binding to the DLAR D1D2 construct fitted well to the independent ligand binding model for two non-interacting sites.

[2] = target: T2, DLAR D2 (Drosophila melanogaster, UniProt P16621); test: PNC binding by fluorescence quenching, DLAR D2; conditions: 5.0 µM protein, 25 mM citrate pH 6.5; fluorescence quenching 350 nm; single site model
T2 construct: DLAR 1728-2029; His tag (pET-15b or pET-22b); made in house; host or cells: E. coli BL21(DE3)
T2 sequence (P16621 1728-2029): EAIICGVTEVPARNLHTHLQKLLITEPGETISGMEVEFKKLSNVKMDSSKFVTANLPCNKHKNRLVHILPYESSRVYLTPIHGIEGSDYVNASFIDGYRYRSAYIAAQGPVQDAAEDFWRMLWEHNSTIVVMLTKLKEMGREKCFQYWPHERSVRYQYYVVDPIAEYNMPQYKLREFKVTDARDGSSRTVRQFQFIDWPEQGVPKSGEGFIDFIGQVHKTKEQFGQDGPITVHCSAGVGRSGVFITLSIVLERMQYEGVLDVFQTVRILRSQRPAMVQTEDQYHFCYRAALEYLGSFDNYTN
Experimental: as §1, §2

[3] = target: T3, DLAR D1D2 (Drosophila melanogaster, UniProt P16621); test: PNC binding by fluorescence quenching, DLAR D1D2; conditions: 5.0 µM protein, 25 mM citrate pH 6.5, fluorescence quenching 350 nm, independent two site model
T3 construct: DLAR 1448-2029; His tag (pET-15b or pET-22b); made in house; host or cells: E. coli BL21(DE3)
T3 sequence (P16621 1448-2029): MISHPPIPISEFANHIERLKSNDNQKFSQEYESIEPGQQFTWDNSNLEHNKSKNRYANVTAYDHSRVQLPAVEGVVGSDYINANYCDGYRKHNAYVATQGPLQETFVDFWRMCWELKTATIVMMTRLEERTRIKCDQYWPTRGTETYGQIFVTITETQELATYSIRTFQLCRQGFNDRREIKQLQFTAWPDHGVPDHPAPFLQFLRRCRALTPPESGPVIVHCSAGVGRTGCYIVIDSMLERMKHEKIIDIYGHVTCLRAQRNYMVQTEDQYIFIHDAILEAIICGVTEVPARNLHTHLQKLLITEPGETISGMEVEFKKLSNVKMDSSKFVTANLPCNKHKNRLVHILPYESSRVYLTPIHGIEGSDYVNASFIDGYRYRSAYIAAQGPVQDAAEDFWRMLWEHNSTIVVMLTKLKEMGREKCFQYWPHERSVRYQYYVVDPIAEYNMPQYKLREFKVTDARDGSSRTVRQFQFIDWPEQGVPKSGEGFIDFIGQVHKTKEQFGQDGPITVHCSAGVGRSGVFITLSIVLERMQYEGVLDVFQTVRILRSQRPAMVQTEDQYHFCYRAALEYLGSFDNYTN
Experimental: as §1, §2

[4] = target: T4, PTP99A D2 (Drosophila melanogaster, UniProt P35832); test: PNC binding by fluorescence quenching, PTP99A D2
T4 sequence (P35832 740-1050): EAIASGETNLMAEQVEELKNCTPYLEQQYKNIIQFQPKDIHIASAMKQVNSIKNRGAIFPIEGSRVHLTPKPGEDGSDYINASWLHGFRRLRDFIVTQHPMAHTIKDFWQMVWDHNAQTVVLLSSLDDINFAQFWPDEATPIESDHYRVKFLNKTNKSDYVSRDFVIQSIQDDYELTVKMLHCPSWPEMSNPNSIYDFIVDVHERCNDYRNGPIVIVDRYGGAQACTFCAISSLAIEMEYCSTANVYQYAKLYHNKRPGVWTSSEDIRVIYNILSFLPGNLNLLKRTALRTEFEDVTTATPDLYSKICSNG
Experimental: as §1, §2

[5] = target: T5, PTP99A D1D2 (Drosophila melanogaster, UniProt P35832); test: PNC binding by fluorescence quenching, PTP99A D1D2; conditions: 5.0 µM protein, 25 mM citrate pH 6.5; fluorescence quenching 350 nm; independent two site model; read-out: Kd1
T5 sequence (P35832 450-1050): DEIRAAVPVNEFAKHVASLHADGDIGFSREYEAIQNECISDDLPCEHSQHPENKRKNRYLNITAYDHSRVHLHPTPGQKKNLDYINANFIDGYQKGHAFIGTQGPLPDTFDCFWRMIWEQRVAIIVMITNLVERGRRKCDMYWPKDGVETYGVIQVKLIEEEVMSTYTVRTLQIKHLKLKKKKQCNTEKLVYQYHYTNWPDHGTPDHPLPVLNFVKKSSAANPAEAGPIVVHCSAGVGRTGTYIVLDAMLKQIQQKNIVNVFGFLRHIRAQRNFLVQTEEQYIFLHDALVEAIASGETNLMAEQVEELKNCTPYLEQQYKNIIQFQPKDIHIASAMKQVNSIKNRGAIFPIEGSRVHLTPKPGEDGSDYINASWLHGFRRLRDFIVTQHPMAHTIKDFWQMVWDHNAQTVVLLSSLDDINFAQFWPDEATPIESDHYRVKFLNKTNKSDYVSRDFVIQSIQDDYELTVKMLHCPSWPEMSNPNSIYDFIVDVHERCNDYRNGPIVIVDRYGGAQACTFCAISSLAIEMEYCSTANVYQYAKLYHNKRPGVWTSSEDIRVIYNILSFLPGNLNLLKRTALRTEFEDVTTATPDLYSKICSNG
Experimental: as §1, §2

[6] = target: T6, PTP99A D1 (Drosophila melanogaster, UniProt P35832); test: PNC binding by fluorescence quenching, PTP99A D1; set-up: PTP99A 450-756; His tag (pET-15b or pET-22b); made in house; host or cells: E. coli BL21(DE3)
T6 sequence (P35832 450-756): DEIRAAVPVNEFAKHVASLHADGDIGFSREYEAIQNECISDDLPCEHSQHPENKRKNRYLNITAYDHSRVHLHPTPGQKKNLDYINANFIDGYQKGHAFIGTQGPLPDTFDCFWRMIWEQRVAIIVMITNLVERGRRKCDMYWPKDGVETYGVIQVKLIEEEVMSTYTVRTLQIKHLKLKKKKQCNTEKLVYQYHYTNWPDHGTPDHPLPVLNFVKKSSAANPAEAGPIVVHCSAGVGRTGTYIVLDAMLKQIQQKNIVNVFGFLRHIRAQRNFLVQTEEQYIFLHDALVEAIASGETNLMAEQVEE
Experimental: as §1, §2

[7] = target: DLAR D1 (membrane-proximal PTP domain of DLAR) (Drosophila melanogaster); test: SPR; Biacore-2000; DLAR PTP domains immobilised on CM5 chips by amine coupling; peptides as analyte at 50-700 µM; 25°C; 10 mM HEPES pH 8.0, 150 mM NaCl, 10 mM DTT, 3 mM EDTA; 5 µL/min; two independent sites fit for the double domain constructs, single-site fit for DLAR D1 and DLAR D2
[8] = target: DLAR D1D2 (tandem PTP domains of Drosophila Leukocyte antigen Related) (Drosophila melanogaster); test: as above
[9] = target: DLAR D1D2HSS (Cys to Ser mutation in the D2 domain) (Drosophila melanogaster); test: as above
[10] = target: DLAR D1HSS D2 (Cys to Ser mutation in the D1 domain) (Drosophila melanogaster); test: as above
[11] = target: DLAR D2 (membrane-distal PTP domain of DLAR) (Drosophila melanogaster); test: as above
[12] = 5.0 µM protein, 25 mM citrate pH 6.5, fluorescence quenching 350 nm, single site model

## O=[N+]([O-])c1ccc(O)c(OS(=O)(=O)O)c1 [PNC, 2-hydroxy-5-nitrophenyl sulfate]
[1]; 5.0 µM protein, 25 mM citrate buffer pH 6.5, 100 mM NaCl, 2 mM DTT, tryptophan fluorescence quenching 350 nm, single site model
  Kd: 235 µM
[1]; two PTP domains of DLAR (D1 and D2) compared, fluorescence quenching
  relative PNC binding: comparable affinities
[2]
  Kd: 214 µM
[3]; read-out: Kd1
  Kd: 160 µM
[3]; read-out: Kd2
  Kd: 173 µM
[4]; [12]
  Kd: 716 µM
[4]; D2 domain of PTP99A compared to the other PTP domains, fluorescence quenching
  relative PNC binding: much more poorly
[5]
  Kd: 94.8 µM
[6]; [12]
  Kd: 153 µM
[6]; D1 domain of PTP99A alone, fluorescence quenching
  relative PNC binding: four times more favorable

## TAEPD[pY]GALYE [Cuticle Peptide TAEPD(pY)GALYE]
[7]
  Kd: 94.6 µM
  koff: 0.00176 s⁻¹
  kon: 18.6 M⁻¹ s⁻¹
[8]
  KD, first binding site: 313 µM
  KD, second binding site: 2.02 µM
  ka, first binding site: 32.6 M⁻¹ s⁻¹
  ka, second binding site: 16500 M⁻¹ s⁻¹
  kd, first binding site: 0.0102 s⁻¹
  kd, second binding site: 0.0333 s⁻¹
[9]
  KD, first binding site: 296 µM
  KD, second binding site: 9.43 µM
  ka, first binding site: 51.7 M⁻¹ s⁻¹
  ka, second binding site: 1.37 M⁻¹ s⁻¹
  kd, first binding site: 0.0153 s⁻¹
  kd, second binding site: 1.3e-05 s⁻¹
[10]
  KD, first binding site: 87.5 µM
  KD, second binding site: 1.87 µM
  ka, first binding site: 74.7 M⁻¹ s⁻¹
  ka, second binding site: 28800 M⁻¹ s⁻¹
  kd, first binding site: 0.00654 s⁻¹
  kd, second binding site: 0.054 s⁻¹
[11]
  Kd: 104 µM
  koff: 0.00552 s⁻¹
  kon: 52.8 M⁻¹ s⁻¹

Reference: paper PMC3172300, “Modulation of Catalytic Activity in Multi-Domain Protein Tyrosine Phosphatases” (PLoS ONE, 2011)
